Results from US20110275699A1, “Treatment For Obesity And Diabetes” (University of California, priority 2010, published 2011).

Target: FLAG-tagged USF-1 (wild type, overexpressed in cells) (UniProt P22415)
Assay: cell-based or functional assay

Sequence of UniProt P22415 (P22415 whole entry): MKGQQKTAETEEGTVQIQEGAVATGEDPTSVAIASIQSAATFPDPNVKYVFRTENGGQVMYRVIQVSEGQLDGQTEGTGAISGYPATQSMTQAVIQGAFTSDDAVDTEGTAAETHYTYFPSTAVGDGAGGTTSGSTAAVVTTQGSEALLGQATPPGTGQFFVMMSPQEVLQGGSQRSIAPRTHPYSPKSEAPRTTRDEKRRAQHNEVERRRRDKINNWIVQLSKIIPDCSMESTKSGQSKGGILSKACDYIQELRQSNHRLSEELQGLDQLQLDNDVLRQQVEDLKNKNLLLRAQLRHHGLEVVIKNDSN

| FAS promoter activity (-444 FAS-Luc reporter) | Substance |
| --- | --- |
| 50 % decrease | HDAC9, overexpressed in cells (from UniProt Q9UKV0 1-1011) (enzyme) |
| 2 fold | P/CAF, overexpressed in cells (from UniProt Q92831 1-832) (enzyme) |
